From PMC11169542, “A probe for NIR-II imaging and multimodal analysis of early Alzheimer’s disease by targeting CTGF” (Nature Communications, 2024)
Ends that are not written are not given here.

Columns and labels:
CTGF [1] = target: T1, CTGF (Homo sapiens, UniProt P29279); test: DGC fluorescence labelling of human postmortem brain sections; design: The brain tissue samples of autopsy-confirmed AD patients were obtained from the Chinese Brain Bank Center; from tissue; host or cells: postmortem human brain sections (hippocampus, cortex) of AD patients and healthy controls; details: for fluorescence (FL) intensity of DGC: cortex section, ImageJ
T1 sequence (P29279 27-349): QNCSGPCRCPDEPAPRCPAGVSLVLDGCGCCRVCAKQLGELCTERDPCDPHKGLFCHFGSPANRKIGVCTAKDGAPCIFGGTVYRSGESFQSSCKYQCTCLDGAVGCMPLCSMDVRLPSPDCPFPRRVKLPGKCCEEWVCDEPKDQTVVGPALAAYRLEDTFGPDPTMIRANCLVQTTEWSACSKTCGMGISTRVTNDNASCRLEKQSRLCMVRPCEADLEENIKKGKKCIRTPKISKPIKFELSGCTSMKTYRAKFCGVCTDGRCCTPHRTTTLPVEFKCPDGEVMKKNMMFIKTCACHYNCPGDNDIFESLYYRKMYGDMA
Protocol: The brain tissue samples of autopsy-confirmed AD patients were obtained from the Chinese Brain Bank Center (CBBC) and Human Brain Bank, Central South University Xiangya School of Medicine. First, the brain sections were air-dried for 15 min at room temperature, followed by immersion in water. 5% H2O2 was applied for 15 min at room temperature. The sections were washed three times with PBS for 5 min each time. Then, tissue repair was performed using trypsin at a temperature of 37 °C for 5 min and washed three times with PBS. We chose 10% sheep serum to block for a duration of 20 min at 37°. Primary antibodies (CTGF antibody and Aβ antibody) were added to the sections overnight at 4 °C. FITC-labeled Goat Anti-Rabbit IgG (H + L) (1: dilution 1:200, Bioss, Cat#bs-0370R-FITC) was applied and incubated at 37 °C for 20 min in darkness. Subsequent washing steps involved rinsing the sections three times with PBS, each time lasting for 5 min while avoiding exposure to light. DAPI staining was performed, taking care to store the samples away from light during the 5-min procedure. Then observed by the CLSM system. Then, we chose the optimal incubation concentration of DGC (200 μM) was used to determine the conditions using DAB Horseradish Peroxidase Color Development Kit. After the brain sections were co-stained by DGC (200 μM) at 4 °C overnight, a DAB chromogenic agent was added to the brain tissue sections to explore whether DGC can catalyze DAB solutions to produce insoluble brown precipitate to attach the brain tissue sections with an optical microscope. Finally, the brain tissue sections were digested with aqua regia to measure the Au content by the ICP-MS system.

[2] = Parallel artificial membrane permeability assay (PAMPA) mimicking BBB; type: in vitro ADME; details: for PAMPA permeability Pe: precoated PAMPA plate, 40 μM in PBS, 5 h, room temperature, ICP-MS
Protocol: A parallel artificial membrane permeability assay was performed in a 96-well precoated PAMPA plate system (Corning Gentest # 353015). The experimental solutions of DGC were prepared by diluting the stock solutions (10 mM) in PBS at a final concentration of 40 μM and then added to the donor portion of the plate (300 μL/well), while PBS (200 μL/well) was added to the acceptor portion, and the DMSO concentration was lower than 1%. The filter plate was then coupled with the receiver plate, and the plate assembly was incubated at room temperature without agitation for 5 h. Samples of the initial donor solution (C0) were collected and stored at 4 °C. At the end of the incubation, samples were collected from the donor and acceptor plates and then added to aqua regia (HCl: HNO3, volume ratio = 3:1). The C0 samples were treated similarly. The final concentrations of DGC in the donor, acceptor, and T0 wells were quantified by the ICP-MS system (Thermo Elemental X7, USA). The results were used to calculate an effective permeability (Pe, cm/s) value. Permeability of DGC was calculated using the following Eq. (1):1 Pe={-ln[1-CA(t)/Ceq]}/[A×(1/VD+1/VA)×t] Where A = filter area (0.3 cm^2), t = incubation time (seconds), CA(t) = compound concentration in acceptor well at time t, VD = donor well volume (0.3 mL), VA = acceptor well volume (0.2 mL), CD(t) = compound concentration in donor well at time t, and Ceq was calculated using the following Eq. (2):2 Ceq=[CD(t)×VD+CA(t)×VA]/(VD+VA)

CTGF [3] = target: T2, CTGF (Mus musculus, UniProt P29268); test: In vivo NIR-II imaging of brain after DGC injection; design: species or system APP/PS1 and wild-type C57BL/6J mice; details: APP/PS1 mice
T2 construct: brain sections of the age-matched wild-type C57BL/6J mice were used as controls; from tissue; host or cells: brain of APP/PS1 transgenic and wild-type C57BL/6J mice (sections, living animal, perfused isolated brain)
T2 sequence (P29268 26-348): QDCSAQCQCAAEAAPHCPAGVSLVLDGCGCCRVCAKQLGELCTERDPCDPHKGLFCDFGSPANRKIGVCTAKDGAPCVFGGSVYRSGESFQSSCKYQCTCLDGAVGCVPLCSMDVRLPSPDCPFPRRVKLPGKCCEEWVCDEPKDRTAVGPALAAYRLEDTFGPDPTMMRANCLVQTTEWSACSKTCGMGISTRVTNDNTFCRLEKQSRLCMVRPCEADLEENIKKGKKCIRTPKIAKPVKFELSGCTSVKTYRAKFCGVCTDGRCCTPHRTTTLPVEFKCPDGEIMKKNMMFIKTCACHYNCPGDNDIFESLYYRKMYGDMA
Protocol: All animal procedures were performed under an approved protocol of the Ethics Committee of Beijing University of Technology, China. Female APP/PS1 mice and age-matched wild-type C57BL/6J mice were shaved before background imaging. For NIR-II imaging in vivo with DGC, the mice (n = 3) were fasted overnight before the experiment and then injected intravenously with DGC (20 mg/kg, 200 μL). NIR-II imaging of the brains was carried out on an In vivo Master (Grand-imaging Technology) equipped with an InGaAs camera C-RED2 (Firstlight) at different time points after injection of DGC (λ ex = 808 nm, 1000 nm longpass (LP) filter (Edmund Optics)). The excitation intensity of the 808 nm laser (Wuhan Grand-imaging Technology) was about […] and the optical images were acquired using an exposure time of 50 ms. Imaging data were analyzed by ImageJ software.

## DGC: CTGF-targeting peptide-coated gold nanocluster: one Au26 gold nanocluster coated by eight DAG cyclic peptides, NIR-II and red fluorescence (CDAGRKQKC; also: cyclic peptide, ring not given here, eight peptides on one Au26 nanocluster via Cys Au-S bonds)
CTGF [1]; AD 1, Cortex section stained with DGC
  FL Intensity: 8.08
CTGF [1]; AD 1, Hippocampus section stained with DGC
  FL Intensity: 9.357
CTGF [1]; AD 2, Cortex section stained with DGC
  FL Intensity: 14.1982
CTGF [1]; AD 2, Hippocampus section stained with DGC
  FL Intensity: 17.484
CTGF [1]; Case 1 (healthy control, Thal 0), section 1
  fluorescence (FL) intensity of DGC: 0.3032
CTGF [1]; Case 1 (healthy control, Thal 0), section 2
  fluorescence (FL) intensity of DGC: 0.3289
CTGF [1]; Case 1 (healthy control, Thal 0), section 3
  fluorescence (FL) intensity of DGC: 0.3505
CTGF [1]; Case 2 (healthy control, Thal 0), section 1
  fluorescence (FL) intensity of DGC: 0.2446
CTGF [1]; Case 2 (healthy control, Thal 0), section 2
  fluorescence (FL) intensity of DGC: 0.3615
CTGF [1]; Case 2 (healthy control, Thal 0), section 3
  fluorescence (FL) intensity of DGC: 0.163
CTGF [1]; Case 3 (AD, Thal 1), section 1
  fluorescence (FL) intensity of DGC: 0.6904
CTGF [1]; Case 3 (AD, Thal 1), section 2
  fluorescence (FL) intensity of DGC: 0.8926
CTGF [1]; Case 3 (AD, Thal 1), section 3
  fluorescence (FL) intensity of DGC: 0.6063
CTGF [1]; Case 4 (AD, Thal 1), section 1
  fluorescence (FL) intensity of DGC: 0.9911
CTGF [1]; Case 4 (AD, Thal 1), section 2
  fluorescence (FL) intensity of DGC: 1.101
CTGF [1]; Case 4 (AD, Thal 1), section 3
  fluorescence (FL) intensity of DGC: 1.556
CTGF [1]; HC 1, Cortex section stained with DGC
  FL Intensity: 1.2358
CTGF [1]; HC 1, Hippocampus section stained with DGC
  FL Intensity: 1.043
CTGF [1]; HC 2, Cortex section stained with DGC
  FL Intensity: 1.632
CTGF [1]; HC 2, Hippocampus section stained with DGC
  FL Intensity: 6.0176
[2]; 40 μM
  BBB permeability class (PAMPA): high BBB permeability
[2]; at several concentrations
  PAMPA permeability Mean Pe: higher than 1.5 * 10^-6 cm/s
[2]; replicate 1
  PAMPA permeability Pe: 2.121 ×10⁻⁶ cm/s
[2]; replicate 2
  PAMPA permeability Pe: 2.6 ×10⁻⁶ cm/s
[2]; replicate 3
  PAMPA permeability Pe: 1.724 ×10⁻⁶ cm/s
CTGF [3]; 24 h after injection
  NIR-II fluorescence in the brains: still observed
CTGF [3]; after tail vein injection of DGC
  time of peak brain NIR-II signal: 4 h
